Consider 2 substances from paper PMC3516504.

pKd: −log10 of the molar value.

The target of test [1] is Calmodulin, Ca2+-bound (Ca2+-CaM) (UniProt P0DP23). The experiment in a line: NMR titration; TROSY-HSQC of 2H/15N-labelled Ca2+-CaM titrated with unlabelled apo-Lf (titration data not shown); 20 mM Bis-Tris pH 6.8, 150 mM KCl, 4 mM CaCl2, 37 °C.
Test [2] concerns the target Dansylated calmodulin, Ca2+-bound (Ca2+-dCaM) (UniProt P0DP23). The experiment in a line: other fluorescence titration; dansyl fluorescence (excitation 340 nm, intensity at 485 nm); ~80 µM Lf titrated into 1.4 µM dansylated CaM; 50 mM Tris pH 7.5, 1 mM CaCl2, 100 mM KCl (also run at 50 and 150 mM KCl); one site model, CaLigator; triplicate.
Test [3] deals with Calmodulin, Ca2+-bound (Ca2+-CaM) (UniProt P0DP23). Nature of the test: native gel or EMSA; non-denaturing PAGE band shift; increasing amounts of Lf incubated with a constant amount of Ca2+-CaM; running buffer 0.1 mM CaCl2, samples 0.5 mM CaCl2, no urea.

For the substance “Human lactoferrin, iron-free (apo-Lf) (natural protein)”, the stoichiometry N in test [1] and in test [3] was 1 throughout. The pKd in test [2] is 5.46.

As to “Human lactoferrin, iron-saturated (Fe3+-Lf) (natural protein)”, the pKd in test [2] was 5.68. Further, the stoichiometry N in test [3] worked out at 1.

By stoichiometry N is commonly meant a count of units in the complex or per binding partner. Usually pKd stands for −log10 of the Kd, conventionally taken in molar units. Read a low pKd as a high Kd.
